Data: patent US6008014

Molecular target: GST-tchvs10a1 fusion protein (plasmid pGEX-4T-2-S10A1) (human)
Assay: BIAcore (SPR); GST-tchvs10a1 captured on anti-GST antibody as ligand, GST-SR-BI at 200 nM as analyte

response (RU): 220 RU
Substance: GST-SR-BI cytoplasmic domain fusion protein (plasmid pGEX-4T-1-7-5j) (from UniProt Q8WTV0)
